Earlier results on 1 substance are cited in article PMC2586657.

This data set concerns the target alpha-factor (Saccharomyces cerevisiae) (UniProt P01149).

Regarding “alpha-factor receptor (from UniProt D6VTK4)”, the Kd was 5 nM.
